This note sets out measurements from the Human Domainome abundance scans (Beltran et al. 2025).

B1: Homeobox protein cut-like 2, residues 895 to 963; numbered along this chain, O14529 (parent)
chain: EVDTLELTRQVKEKLAKNGICQRIFGEKVLGLSQGSVSDMLSRPKPWSKLTQKGREPFIRMQLWLSDQL

± gives the uncertainty stated by the source.

In this data set the parent is B1. The data set can be described thus: abundance fitness (aPCA) (normalised: wild type 0, dead -1); higher = more abundant; growth selection in yeast, the domain comes from the species named. As to conditions: Homo sapiens.
Consider D39W, for which the abundance fitness is -0.328 ± 0.36. In the case of D39I it was -0.26 ± 0.13; in that of D39C, -0.15 ± 0.26. In the case of E27T it was -0.149 ± 0.044; in that of E27R, -0.019 ± 0.032; in that of E27N, -0.108 ± 0.052. The same measure for E27D: -0.162 ± 0.046.

As for E27Y, the abundance fitness is -0.191 ± 0.046. In the case of E27P it was -0.106 ± 0.041; in that of E27M, -0.14 ± 0.027; in that of E27A, -0.063 ± 0.035. Turning to K17W, the abundance fitness is -0.269 ± 0.053. Consider K17N, for which the abundance fitness was -0.011 ± 0.074. For K17R, the abundance fitness is -0.089 ± 0.055. In the case of K17S it was -0.208 ± 0.051. The same measure for T51L: -0.082 ± 0.033; for T51A: -0.1 ± 0.039; for T51R: -0.109 ± 0.063. The same measure for T51E: -0.403 ± 0.056; for G31Y: -0.449 ± 0.062; for G31Q: -0.213 ± 0.064.

For the variant G31I, the abundance fitness was -0.712 ± 0.068. Consider W47V, for which the abundance fitness was -0.808 ± 0.044.

Consider W47F, for which the abundance fitness is -0.338 ± 0.041. For the variant W47K, the abundance fitness is -1.28 ± 0.16. The same measure for W47C: -1.01 ± 0.15; for W47H: -0.894 ± 0.063.

On to W47N, for which the abundance fitness was -0.895 ± 0.14.

Regarding W47Q, the abundance fitness is -0.84 ± 0.058.

With K53D, the abundance fitness was -0.3 ± 0.12. In the case of K53S it was 0.04 ± 0.047; in that of K53N, -0.233 ± 0.095. For the variant K53I, the abundance fitness is -0.037 ± 0.27. The same measure for L7M: 0.055 ± 0.037.

As for L7H, the abundance fitness is -0.246 ± 0.073. In the case of I24N it was -0.204 ± 0.079; in that of I24M, -0.023 ± 0.037. The same measure for I24H: 0.007 ± 0.085.

Turning to I24K, the abundance fitness is -0.084 ± 0.051.

For I24S, the abundance fitness was -0.084 ± 0.036. The same measure for I24W: 0.103 ± 0.034; for R60Q: -0.111 ± 0.032; for R60G: -0.287 ± 0.23. The same measure for R60E: -0.631 ± 0.19. The same measure for R60C: -0.681 ± 0.27; for R60K: 0.15 ± 0.042; for R60A: -0.27 ± 0.067.

As to R60Y, the abundance fitness was -0.633 ± 0.1. In the case of Q68V it was -0.072 ± 0.029; in that of Q68L, -0.052 ± 0.03; in that of L32I, -0.063 ± 0.034. L32V: the abundance fitness was found to be 0.132 ± 0.05.

For the variant L32H, the abundance fitness was -0.231 ± 0.063. In the case of L32F, the abundance fitness was -0.141 ± 0.028.

As for L32S, the abundance fitness was -0.203 ± 0.04. In the case of L32P, the abundance fitness is -0.286 ± 0.057. In the case of L32E it was -0.227 ± 0.13.

L32Y: the abundance fitness is -0.281 ± 0.035.

Q34E: the abundance fitness is -0.254 ± 0.22. In the case of Q34W it was 0.088 ± 0.15; in that of Q34C, -0.262 ± 0.18; in that of Q34I, 0.005 ± 0.037. The same measure for Q34V: 0.073 ± 0.13; for Q34M: -0.06 ± 0.041; for K28C: -0.293 ± 0.055. The same measure for K28R: -0.1 ± 0.032; for K28E: -0.026 ± 0.043. Regarding K14P, the abundance fitness is -0.208 ± 0.091.

Regarding K14H, the abundance fitness was -0.009 ± 0.062. In the case of K14Q it was -0.012 ± 0.036. Take K14L: the abundance fitness worked out at 0.009 ± 0.027.

For the variant K14W, the abundance fitness was -0.094 ± 0.091.

Regarding K14S, the abundance fitness is -0.154 ± 0.057.

S42C: the abundance fitness is -0.004 ± 0.092. In the case of S42N it was -0.095 ± 0.057.

On to S42H, for which the abundance fitness is -0.007 ± 0.045.

For the variant S42R, the abundance fitness was -0.054 ± 0.1. S42Q: the abundance fitness was -0.092 ± 0.046. The same measure for N18Y: -0.128 ± 0.057. In the case of N18W it was -0.102 ± 0.041; in that of N18G, -0.098 ± 0.058; in that of I20A, -0.535 ± 0.052. In the case of I20P it was -0.226 ± 0.042; in that of I20E, -0.575 ± 0.061. Regarding I20S, the abundance fitness is -0.342 ± 0.038.

Regarding I20Y, the abundance fitness is -0.179 ± 0.049. In the case of I20W it was -0.11 ± 0.077; in that of G35V, -0.058 ± 0.033.

With G35L, the abundance fitness was -0.03 ± 0.024. The same measure for G35E: 0.135 ± 0.045; for S36I: 0.027 ± 0.036. Take S36Q: the abundance fitness came out at 0.15 ± 0.032.

Consider S36W, for which the abundance fitness was -0.057 ± 0.064.

As for L65K, the abundance fitness was -0.726 ± 0.045.

Consider L65I, for which the abundance fitness was -0.278 ± 0.065.

Regarding L65R, the abundance fitness was -0.782 ± 0.055. The same measure for L65H: -0.696 ± 0.08; for L65Q: -0.926 ± 0.07; for L63W: -0.271 ± 0.087.

On to L63K, for which the abundance fitness was determined as 0.113 ± 0.063.

With L63G, the abundance fitness is -0.19 ± 0.2. L63N: the abundance fitness is -0.006 ± 0.07. As for L63F, the abundance fitness is -0.274 ± 0.046. In the case of L63D it was 0.07 ± 0.12; in that of L63C, -0.127 ± 0.09. The same measure for M40E: -0.475 ± 0.1. In the case of M40C it was -0.045 ± 0.082; in that of M40S, -0.201 ± 0.038; in that of M40F, -0.189 ± 0.083. As to P57Y, the abundance fitness amounted to 0.027 ± 0.052. In the case of P57C it was -0.139 ± 0.14; in that of P57Q, -0.036 ± 0.038. The same measure for P57I: 0.044 ± 0.041. Consider P57M, for which the abundance fitness stood at 0.073 ± 0.043. The same measure for P57F: -0.028 ± 0.051; for P57R: -0.081 ± 0.055; for P57L: 0.087 ± 0.029. G54K: the abundance fitness is -0.461 ± 0.062. G54W: the abundance fitness is -0.097 ± 0.043.

In the case of R23V, the abundance fitness is -0.162 ± 0.03. Consider R23P, for which the abundance fitness is -0.627 ± 0.051. The same measure for R23L: -0.203 ± 0.029; for R23Q: -0.079 ± 0.048; for R23F: -0.009 ± 0.056. In the case of R23I it was -0.192 ± 0.094. In the case of I59C it was -0.278 ± 0.13; in that of I59N, -0.117 ± 0.051. I59E: the abundance fitness was 0.028 ± 0.064.

Regarding I59D, the abundance fitness was -0.535 ± 0.1.

Regarding I59Q, the abundance fitness came out at 0.031 ± 0.036. The same measure for I59L: -0.011 ± 0.031.

In the case of Q62A, the abundance fitness is -0.098 ± 0.035. Consider Q62S, for which the abundance fitness was -0.079 ± 0.035.

As for Q62W, the abundance fitness is 0.005 ± 0.046. In the case of Q62C it was -0.263 ± 0.075; in that of Q62H, -0.127 ± 0.084. The same measure for Q62N: -0.401 ± 0.16. In the case of Q62F it was -0.69 ± 0.14.

In the case of V2L, the abundance fitness is 0.03 ± 0.027. In the case of V2N it was -0.136 ± 0.077; in that of V2M, 0.077 ± 0.038. The same measure for V2Y: -0.152 ± 0.069; for V2R: -0.041 ± 0.052; for S66N: 0.189 ± 0.076. Consider S66E, for which the abundance fitness was -0.069 ± 0.077.

As for S66T, the abundance fitness is -0.008 ± 0.032. The same measure for S66Y: -0.001 ± 0.089; for V11W: -0.313 ± 0.034. The same measure for V11I: -0.18 ± 0.092; for V11D: -0.065 ± 0.073. In the case of V11T it was -0.171 ± 0.049; in that of V11G, -0.146 ± 0.029. Turning to V11P, the abundance fitness is -0.141 ± 0.051. The same measure for V11K: -0.081 ± 0.035.

For R9S, the abundance fitness was -0.16 ± 0.033. In the case of R9L it was -0.162 ± 0.028. The same measure for Q22C: -0.306 ± 0.1.

Q22L: the abundance fitness was -0.003 ± 0.032.

For the variant Q22S, the abundance fitness is -0.089 ± 0.032. In the case of Q22A it was -0.098 ± 0.05; in that of Q22M, -0.071 ± 0.046; in that of Q22K, -0.095 ± 0.064. The same measure for Q22T: -0.151 ± 0.059. Consider Q22I, for which the abundance fitness was -0.223 ± 0.1. In the case of Q52V it was -0.034 ± 0.041; in that of Q52I, -0.06 ± 0.086; in that of Q52T, 0.046 ± 0.042.
